± gives the uncertainty stated by the source.
B1: V(D)J recombination-activating protein 2, residues 415 to 491; numbered along this chain, P55895 (parent)
chain: YWITCCPTCDVDINTWVPFYSTELNKPAMIYCSHGDGHWVHAQCMDLAERTLIHLSAGSNKYYCNEHVEIARALHTP

Variants of: B1
Test: abundance fitness (aPCA) (normalised: wild type 0, dead -1); higher = more abundant; growth selection in yeast, the domain comes from the species named
Settings: Homo sapiens

YWITCCPTCDVDINTWVPFYSTELNKPAMIYCSHGDGHWVHAQCMDLAERTLIHLSAGSNKYYCNEHVEIARALHTN [P77N] and YWITCCPTCDVDINTWVPFYSTELNKPAMIYCSHGDGHWVHAQCMDLAERTLIHLSAPSNKYYCNEHVEIARALHTP [G58P] are within error of each other in abundance fitness: -0.325 ± 0.35 for the first, -0.013 ± 0.11 for the second.

YWITCCPTCDVDINTWVPFYSTELNKPAMIYCSHGDGHWVHAQCMDLAERTLIHLSAGSNKYYCNEHVEEARALHTP [I70E] and YWITCCPTCDVDINTWVPFYSTELNKPAMIYCSHGDGHWVHAQCMDLAERTLIHLSAGSNKYYCNEHVEKARALHTP [I70K] are within error of each other in abundance fitness: -0.093 ± 0.097 for the first, -0.139 ± 0.12 for the second.

YWITCCPTCDVDINTWVPFYSTELNKPAMIYCSHGDGHWVHAQCMDLAERTLIHLSAGSNKYYCNEHVEHARALHTP [I70H] and YWITCCPTCDVDINTWVPFYETELNKPAMIYCSHGDGHWVHAQCMDLAERTLIHLSAGSNKYYCNEHVEIARALHTP [S21E] are within error of each other in abundance fitness: -0.205 ± 0.23 for the first, 0.119 ± 0.17 for the second.

First: YWITCCPTCDVDINTWVPFYSTELNKPAMIYCSHGDGHWVHAQVMDLAERTLIHLSAGSNKYYCNEHVEIARALHTP [C44V]
Second: YWITCCPTCDVDINTWVPFYSTELNKPAMIYCSHGDGHWVHAQCMDLAERTLIHLSAGSNKYYCNEHVEIASALHTP [R72S]
The abundance fitness of the first is lower: -1.11 ± 0.14 for the first, 0.073 ± 0.071 for the second.

YWITCCPTCDVDINTWVQFYSTELNKPAMIYCSHGDGHWVHAQCMDLAERTLIHLSAGSNKYYCNEHVEIARALHTP [P18Q] and YWITCCPTCDVDINTWVEFYSTELNKPAMIYCSHGDGHWVHAQCMDLAERTLIHLSAGSNKYYCNEHVEIARALHTP [P18E] are within error of each other in abundance fitness: -0.425 ± 0.14 for the first, -0.28 ± 0.34 for the second.

YWITCCPTCDVDINTWVPFYSTELYKPAMIYCSHGDGHWVHAQCMDLAERTLIHLSAGSNKYYCNEHVEIARALHTP [N25Y] and YWITCCPTCDVDINTWVPFYSTEQNKPAMIYCSHGDGHWVHAQCMDLAERTLIHLSAGSNKYYCNEHVEIARALHTP [L24Q] are within error of each other in abundance fitness: -0.344 ± 0.36 for the first, -0.1 ± 0.18 for the second.

YWITCCPTCDVDINTWVPFYSTELNKPAMIYCSHGDGHWVHAQCMDLAERTLIHLGAGSNKYYCNEHVEIARALHTP [S56G] and YWITCCPTCDVDINTWQPFYSTELNKPAMIYCSHGDGHWVHAQCMDLAERTLIHLSAGSNKYYCNEHVEIARALHTP [V17Q] are within error of each other in abundance fitness: 0.005 ± 0.037 for the first, 0.074 ± 0.19 for the second.

Compared with YWITCCPTCDVDINTWVPFYSTELNKPAMIYCSHGDGHWVHAQCMDLAERTLIHLSAGSNKYYCNEHVEISRALHTP [A71S], YWITCCPTCDVDINTWVPFYSTELNKPAMIYCSHGDGHWVHAQCMDLAERTLIHLSAGSNKYYPNEHVEIARALHTP [C64P] is lower in abundance fitness: -0.04 ± 0.06 for the first, -0.822 ± 0.26 for the second.

YWITCCPTCDVDINTWVPFYSTELNKPAMIYCSHGDGHWVHAQCMDLACRTLIHLSAGSNKYYCNEHVEIARALHTP [E49C] and YWITCCPTCDVDINTWVPDYSTELNKPAMIYCSHGDGHWVHAQCMDLAERTLIHLSAGSNKYYCNEHVEIARALHTP [F19D] are within error of each other in abundance fitness: -0.201 ± 0.067 for the first, 0.099 ± 0.32 for the second.

YWITCCPTCDVDINTWVPFYSTELNKPAMIYCSHGDGHWVHAQCMDLAELTLIHLSAGSNKYYCNEHVEIARALHTP [R50L] and YWITCCPTCDVDINTWVPFYSTELNKPAMLYCSHGDGHWVHAQCMDLAERTLIHLSAGSNKYYCNEHVEIARALHTP [I30L] are within error of each other in abundance fitness: 0.013 ± 0.051 for the first, 0.122 ± 0.14 for the second.

YWITCCPTCDVDINTWVPFYSTELNKPAMIYCSHGDGHWVHAQCMDLAERTLIHLSAGSNKYYCNSHVEIARALHTP [E66S] and YWITCCPTCDVDINTWVPFYSTELNKPAMIYCSHGDGHWVHAQCMDLAERTLIHLSAGSNKYYCEEHVEIARALHTP [N65E] are within error of each other in abundance fitness: -0.039 ± 0.074 for the first, 0.058 ± 0.082 for the second.

YWITCCPTCDVDINTWVPFYSTELNKPAMIYCSHGDGHWVHAQCMDLAERTLIHLSAGCNKYYCNEHVEIARALHTP [S59C] and YWITCCPTCDVDINTWVPFYSTELNKPAMIYCSHGDGHWVHAQCMSLAERTLIHLSAGSNKYYCNEHVEIARALHTP [D46S] are within error of each other in abundance fitness: -0.005 ± 0.1 for the first, 0.102 ± 0.055 for the second.

YWITCCPTCDVDINTWVPFYSTELNKPAMIYCSHGDGHWVHAQCMCLAERTLIHLSAGSNKYYCNEHVEIARALHTP [D46C] and YWITCCPTCDVDINTWVPFYSTELNKPAMIYCSHGGGHWVHAQCMDLAERTLIHLSAGSNKYYCNEHVEIARALHTP [D36G] are within error of each other in abundance fitness: 0.036 ± 0.083 for the first, -0.04 ± 0.17 for the second.

Going from YWITCCPTCDVDINTWVPFYSTELNKPAMIYCSHGDGHWWHAQCMDLAERTLIHLSAGSNKYYCNEHVEIARALHTP [V40W] to YWITCCPTCDVDINTWVPFYSTELNKPAMIYCSHGDGHWCHAQCMDLAERTLIHLSAGSNKYYCNEHVEIARALHTP [V40C], the abundance fitness rises from -1.16 ± 0.23 to -0.206 ± 0.18.

YWITCCPTCDVDINTWVPFYSTELNKPAMIYCSRGDGHWVHAQCMDLAERTLIHLSAGSNKYYCNEHVEIARALHTP [H34R] and YWITCCWTCDVDINTWVPFYSTELNKPAMIYCSHGDGHWVHAQCMDLAERTLIHLSAGSNKYYCNEHVEIARALHTP [P7W] are within error of each other in abundance fitness: -0.119 ± 0.074 for the first, -0.242 ± 0.23 for the second.

First: YWITCCPTCDVDINTWVPFYSTELNKPAMIYCSHGDGHWVHAQCMDLAERTLIHLSAGSNKPYCNEHVEIARALHTP [Y62P]
Second: YWITCCPTCDVDINTWVPFYSTELNKPAMIYCSHGDGHWVHAQCMDLAERTLIHLSAGSMKYYCNEHVEIARALHTP [N60M]
The abundance fitness of the first is lower: -0.67 ± 0.084 for the first, -0.081 ± 0.1 for the second.

Going from YWITCCPTCDVDINTEVPFYSTELNKPAMIYCSHGDGHWVHAQCMDLAERTLIHLSAGSNKYYCNEHVEIARALHTP [W16E] to YWITCCPTCDVDINTWVPFYSTELNKPAMIYCSHGDGHWVHAQCMDLAERTLIHLSAGSNKYYCNEHVEIARALKTP [H75K], the abundance fitness rises from -0.894 ± 0.36 to -0.003 ± 0.1.

YWITCCPTCDVDINTWVPFYSTELNKPAMIYCSHGDGHWVHAQCMDLAERTLIHLSAGSNRYYCNEHVEIARALHTP [K61R] and YWATCCPTCDVDINTWVPFYSTELNKPAMIYCSHGDGHWVHAQCMDLAERTLIHLSAGSNKYYCNEHVEIARALHTP [I3A] are within error of each other in abundance fitness: -0.287 ± 0.2 for the first, -0.057 ± 0.042 for the second.

— the Human Domainome abundance scans (Beltran et al. 2025)
